Assay results as given in publication PMC11467669 (The Journal of Biological Chemistry, 2024).

Legend:
[1] = target: mono-ubiquitin with an N-terminal fluorescein moiety (UniProt P0CG47 1-76, fluorescein on the N-terminus); test: fluorescence polarisation
SEC-MALLS = target: the molecule itself; test: SEC-MALLS

Row | Binder | Kd [1] [nM] | stoichiometry N (SEC-MALLS)
1 | USP8 Δ686–757 (FL USP8, a.a. 7-1110, entire WW-CD linker deleted) (enzyme) VPKELYLSSSLKDLNKKTEVKPEKISTKSYVHSALKIFKTAEECRLDRDEERAYVLYMKYVTVYNLIKKRPDFKQQQDYFHSILGPGNIKKAVEEAERLSESLKLRYEEAEVRKKLEEKDRQEEAQRLQQKRQETGREDGGTLAKGSLENVLDSKDKTQKSNGEKNEKCETKEKGAITAKELYTMMTDKNISLIIMDARRMQDYQDSCILHSLSVPEEAISPGVTASWIEAHLPDDSKDTWKKRGNVEYVVLLDWFSSAKDLQIGTTLRSLKDALFKWESKTVLRNEPLVLEGGYENWLLCYPQYTTNAKVTPPPRRQNEEVSISLDFTYPSLEESIPSKPAAQTPPASIEVDENIELISGQNERMGPLNISTPVEPVAASKSDVSPIIQPVPSIKNVPQIDRTKKPAVKLPEEHRIKSESTNHEQQSPQSGKVIPDRSTKPVVFSPTLMLTDEEKARIHAETALLMEKNKQEKELRERQQEEQKEKLRKEEQEQKAKKKQEAEENEITEKQQKAKEEMEKKESEQAKKEDKETSAKRGKEITGVKRQSKSEHETSDAKKSVEDRGKRCPTPEIQKKSTGDVPHTSVTGDSGSGKPFKIKGQPESGILRTGTFREDTDDTERNKAQREPLTRARSEEMGRIVPGLPSGWAKFLDPITGTFRYYHSPTNTVHMYPPEMAPSASQIRNLNPVFGGSGPALTGLRNLGNTCYMNSILQCLCNAPHLADYFNRNCYQDDINRSNLLGHKGEVAEEFGIIMKALWTGQYRYISPKDFKITIGKINDQFAGYSQQDSQELLLFLMDGLHEDLNKADNRKRYKEENNDHLDDFKAAEHAWQKHKQLNESIIVALFQGQFKSTVQCLTCHKKSRTFEAFMYLSLPLASTSKCTLQDCLRLFSKEEKLTDNNRFYCSHCRARRDSLKKIEIWKLPPVLLVHLKRFSYDGRWKQKLQTSVDFPLENLDLSQYVIGPKNNLKKYNLFSVSNHYGGLDGGHYTAYCKNAARQRWFKFDDHEVSDISVSSVKSSAAYILFYTSLG | 367 | 
2 | 14-3-3γ (natural protein, UniProt P61981 1-247, looked up) MVDREQLVQKARLAEQAERYDDMAAAMKNVTELNEPLSNEERNLLSVAYKNVVGARRSSWRVISSIEQKTSADGNEKKIEMVRAYREKIEKELEAVCQDVLSLLDNYLIKNCSETQYESKVFYLKMKGDYYRYLAEVATGEKRATVVESSEKAYSEAHEISKEHMQPTHPIRLGLALNYSVFYYEIQNAPEQACHLAKTAFDDAIAELDTLNEDSYKDSTLIMQLLRDNLTLWTSDQQDDDGGEGNN |  | 2

Second part, led by results:

Row | Kd [1] [nM] | Binder | stoichiometry N (SEC-MALLS)
3 | 290 | USP8 ΔWW (WW domain-deleted mutant of FL USP8, a.a. 7-1110) (enzyme) VPKELYLSSSLKDLNKKTEVKPEKISTKSYVHSALKIFKTAEECRLDRDEERAYVLYMKYVTVYNLIKKRPDFKQQQDYFHSILGPGNIKKAVEEAERLSESLKLRYEEAEVRKKLEEKDRQEEAQRLQQKRQETGREDGGTLAKGSLENVLDSKDKTQKSNGEKNEKCETKEKGAITAKELYTMMTDKNISLIIMDARRMQDYQDSCILHSLSVPEEAISPGVTASWIEAHLPDDSKDTWKKRGNVEYVVLLDWFSSAKDLQIGTTLRSLKDALFKWESKTVLRNEPLVLEGGYENWLLCYPQYTTNAKVTPPPRRQNEEVSISLDFTYPSLEESIPSKPAAQTPPASIEVDENIELISGQNERMGPLNISTPVEPVAASKSDVSPIIQPVPSIKNVPQIDRTKKPAVKLPEEHRIKSESTNHEQQSPQSGKVIPDRSTKPVVFSPTLMLTDEEKARIHAETALLMEKNKQEKELRERQQEEQKEKLRKEEQEQKAKKKQEAEENEITEKQQKAKEEMEKKESEQAKKEDKETSAKRGKEITGVKRQSKSEHETSDAKKSVEDRGKRCPTPEIQKKSTGDVPHTSVTGDSGSGKPFKIKGQPESGILRTGTFREDTDDTERNKAQREPLTRARSEEMSSAPPSTPPTHKAKPQIPAERDREPSKLKRSYSSPDITQAIQEEEKRKPTVTPTVNRENKPTCYPKAEISRLSASQIRNLNPVFGGSGPALTGLRNLGNTCYMNSILQCLCNAPHLADYFNRNCYQDDINRSNLLGHKGEVAEEFGIIMKALWTGQYRYISPKDFKITIGKINDQFAGYSQQDSQELLLFLMDGLHEDLNKADNRKRYKEENNDHLDDFKAAEHAWQKHKQLNESIIVALFQGQFKSTVQCLTCHKKSRTFEAFMYLSLPLASTSKCTLQDCLRLFSKEEKLTDNNRFYCSHCRARRDSLKKIEIWKLPPVLLVHLKRFSYDGRWKQKLQTSVDFPLENLDLSQYVIGPKNNLKKYNLFSVSNHYGGLDGGHYTAYCKNAARQRWFKFDDHEVSDISVSSVKSSAAYILFYTSLG | 
4 | 1480 | full-length USP8 (a.a. 7-1110), non-phosphorylated (enzyme) VPKELYLSSSLKDLNKKTEVKPEKISTKSYVHSALKIFKTAEECRLDRDEERAYVLYMKYVTVYNLIKKRPDFKQQQDYFHSILGPGNIKKAVEEAERLSESLKLRYEEAEVRKKLEEKDRQEEAQRLQQKRQETGREDGGTLAKGSLENVLDSKDKTQKSNGEKNEKCETKEKGAITAKELYTMMTDKNISLIIMDARRMQDYQDSCILHSLSVPEEAISPGVTASWIEAHLPDDSKDTWKKRGNVEYVVLLDWFSSAKDLQIGTTLRSLKDALFKWESKTVLRNEPLVLEGGYENWLLCYPQYTTNAKVTPPPRRQNEEVSISLDFTYPSLEESIPSKPAAQTPPASIEVDENIELISGQNERMGPLNISTPVEPVAASKSDVSPIIQPVPSIKNVPQIDRTKKPAVKLPEEHRIKSESTNHEQQSPQSGKVIPDRSTKPVVFSPTLMLTDEEKARIHAETALLMEKNKQEKELRERQQEEQKEKLRKEEQEQKAKKKQEAEENEITEKQQKAKEEMEKKESEQAKKEDKETSAKRGKEITGVKRQSKSEHETSDAKKSVEDRGKRCPTPEIQKKSTGDVPHTSVTGDSGSGKPFKIKGQPESGILRTGTFREDTDDTERNKAQREPLTRARSEEMGRIVPGLPSGWAKFLDPITGTFRYYHSPTNTVHMYPPEMAPSSAPPSTPPTHKAKPQIPAERDREPSKLKRSYSSPDITQAIQEEEKRKPTVTPTVNRENKPTCYPKAEISRLSASQIRNLNPVFGGSGPALTGLRNLGNTCYMNSILQCLCNAPHLADYFNRNCYQDDINRSNLLGHKGEVAEEFGIIMKALWTGQYRYISPKDFKITIGKINDQFAGYSQQDSQELLLFLMDGLHEDLNKADNRKRYKEENNDHLDDFKAAEHAWQKHKQLNESIIVALFQGQFKSTVQCLTCHKKSRTFEAFMYLSLPLASTSKCTLQDCLRLFSKEEKLTDNNRFYCSHCRARRDSLKKIEIWKLPPVLLVHLKRFSYDGRWKQKLQTSVDFPLENLDLSQYVIGPKNNLKKYNLFSVSNHYGGLDGGHYTAYCKNAARQRWFKFDDHEVSDISVSSVKSSAAYILFYTSLG | 
